Article PMC3282809 (Diabetes, 2012)

Target: the molecule itself
Assay: cross-linking + co-IP

B1: endogenous sorcin (MIN6 β-cells) (natural protein, mouse (endogenous in MIN6), UniProt Q6P069 1-198, looked up)
chain: MAYPGHPGAGGGYYPGGYGGAPGGPAFPGQTQDPLYGYFAAVAGQDGQIDADELQRCLTQSGIAGGYKPFNLETCRLMVSMLDRDMSGTMGFNEFKELWAVLNGWRQHFISFDSDRSGTVDPQELQKALTTMGFRLSPQTVNSVAKRYSTSGKITFDDYIACCVKLRALTDSFRRRDSGQQGVVNFSYDDFIQCVMTV
- stoichiometry N: 2
